This assay has as its target T1, MBP-tagged bHLH107 (Arabidopsis, UniProt Q9LET0 1-230).
T1 sequence (looked up): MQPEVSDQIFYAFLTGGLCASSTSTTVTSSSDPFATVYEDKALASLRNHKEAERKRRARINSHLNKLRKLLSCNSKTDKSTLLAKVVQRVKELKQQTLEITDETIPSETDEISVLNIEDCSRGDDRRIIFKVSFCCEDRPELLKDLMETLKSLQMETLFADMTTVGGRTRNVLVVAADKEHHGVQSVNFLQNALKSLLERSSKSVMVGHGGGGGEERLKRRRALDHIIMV
Kind of assay: pull-down.

B1: His-tagged HY5 (natural protein, Arabidopsis, UniProt O24646 1-168, looked up)
chain: MQEQATSSLAASSLPSSSERSSSSAPHLEIKEGIESDEEIRRVPEFGGEAVGKETSGRESGSATGQERTQATVGESQRKRGRTPAEKENKRLKRLLRNRVSAQQARERKKAYLSELENRVKDLENKNSELEERLSTLQNENQMLRHILKNTTGNKRGGGGGSNADASL
Take B1: the binding result is reported as “binds”.

For the origin of these results see doi:10.1101/2024.09.27.615457 (bioRxiv, 2024).
